Laboratory results: patent US10849992B1, “Methods of screening for sortilin binding antagonists” (ALECTOR LLC, priority 2015, dated 2020)
“Also recorded” adds a separate entry of the source.

How the values were obtained:
Sortilin [1] = molecular target: T1, Sortilin (Homo sapiens, UniProt Q99523); assay: Cell-based microscopy assay: DyLight-650 PGRN binding and endocytosis; design: expressed in transfected cells; host or cells: HEK293T; conditions: 10 μM blocker with 40 nM DyLight-650 PGRN, listed as sortilin pro-peptide
T1 sequence (Q99523 78-831): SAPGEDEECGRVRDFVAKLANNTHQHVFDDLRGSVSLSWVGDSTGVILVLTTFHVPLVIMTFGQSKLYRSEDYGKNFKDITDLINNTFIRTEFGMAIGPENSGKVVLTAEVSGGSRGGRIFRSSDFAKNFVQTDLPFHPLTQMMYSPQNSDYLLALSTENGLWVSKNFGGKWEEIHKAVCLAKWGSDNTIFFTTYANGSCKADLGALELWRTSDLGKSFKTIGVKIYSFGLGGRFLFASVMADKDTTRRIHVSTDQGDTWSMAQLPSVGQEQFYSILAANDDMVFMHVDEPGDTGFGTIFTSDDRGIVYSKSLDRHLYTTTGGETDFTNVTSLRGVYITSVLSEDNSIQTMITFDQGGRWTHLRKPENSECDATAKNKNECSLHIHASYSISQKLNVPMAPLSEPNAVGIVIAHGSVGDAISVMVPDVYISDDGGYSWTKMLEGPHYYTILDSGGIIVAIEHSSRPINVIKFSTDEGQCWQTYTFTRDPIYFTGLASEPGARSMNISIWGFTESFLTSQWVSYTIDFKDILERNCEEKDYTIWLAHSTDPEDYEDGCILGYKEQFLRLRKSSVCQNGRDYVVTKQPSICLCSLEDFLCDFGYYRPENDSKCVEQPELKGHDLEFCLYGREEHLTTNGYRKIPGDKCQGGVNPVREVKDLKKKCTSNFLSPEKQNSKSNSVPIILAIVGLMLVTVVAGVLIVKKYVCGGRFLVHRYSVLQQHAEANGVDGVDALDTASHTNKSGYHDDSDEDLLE
Description: HEK293T cells were transiently transfected with constructs for expressing sortilin or LacZ (control) and incubated with PGRN labeled using DyLight-650 (Life Technologies, Carlsbad, Calif.) for up to 60 minutes at 37° C. Binding and endocytosis of PGRN were observed by fluorescence microscopy. Recombinant human Progranulin (Adipogen) was labeled with DyLight 650 (Life Technologies, Carlsbad, Calif.). Cells were transiently transfected with human Sortilin or lacZ (control) and GFP using Fugene and harvested after 24 h. GFP was either expressed by a second vector (Topo3.3, Invitrogen) or located on the same vector, separated by an IRES (pCMV6-AC-IRES-GFP, Origene). Full-length Sortilin was used either untagged (Topo3.3) or with a C-terminal myc tag (pCMV6-AC-IRES-GFP). Cells were then plated on microscopy chambered glass slides coated with poly-1-lysine. After 4-6 h, cells were washed in OptiMem serum-free media, and 40 nM Progranulin-650 was added with or without 10 uM Sortilin pro-peptide as a blocker. Cells were incubated at 37° C. for up to 60′. Subsequently, cells were fixed in 4% paraformaldehyde, washed in PBS and imaged on a Nikon fluorescent microscope.

Sortilin [2] = molecular target: T1, Sortilin; assay: Cell-based PGRN-conditioned media assay (PGRN ELISA); design: expressed in transfected cells; host or cells: HEK293T; conditions: sortilin-expressing HEK293T; 36-48 h; 1 or 10 μM pro-peptide, 6.7 or 67 nM antibody
Description: HEK293T cells were transiently transfected with constructs for expressing sortilin or LacZ (control) and incubated with PGRN-conditioned media collected from PGRN transfected HEK293T cells. PGRN levels remaining in the media were measured after 36-48 h using a PGRN ELISA Duoset kit (R&D Systems). Cells were incubated with 1 or 10 μM sortilin pro-peptide, 6.7 nM or 67 nM goat anti-sortilin antibody (SORT1 Ab), or 67 nM control IgG.
To prepare hPGRN-conditioned media, Hek293T cells were transiently transfected with full-length, untagged human PGRN (pCMV-Sport6, Thermo Scientific) using Fugene HD (Promega). Media containing PGRN was collected after 48 h. For the experiment, Hek293T cells were transiently transfected with human Sortilin (untagged in Topo3.3) or lacZ (control, Topo3.3) using Fugene HD. After 4-6 h, media containing a 1:5 dilution of PGRN conditioned media was added to the cells with or without blockers [1 or 10 uM Sortilin pro-peptide; 6.7 or 67 nM goat anti-Sortilin antibody (SORT1 Ab, R&D Systems, AF3154) or control IgG (R&D Systems, AB-108-C)]. Cell supernatant was collected after 48 h and analyzed using a PGRN Elisa Duoset kit (R&D Systems, DY2420).

Sortilin [3] = molecular target: T1, Sortilin; assay: FACS assay: sortilin-mediated PGRN-DyLight650 binding and endocytosis; format: cell-based; design: Full-length Sortilin was used either untagged (Topo3.3) or with a C-terminal myc tag (pCMV6-AC-IRES-GFP); myc (only in the pCMV6-AC-IRES-GFP construct); expressed in transfected cells; host or cells: HEK293T; conditions: FIG. 10B
Description: Sortilin-expressing cells were GFP-positive, and untransfected cells were GFP-negative (as labeled in FIG. 10A).
A second assay was developed using DyLight-650-conjugated PGRN protein. In this assay, binding and endocytosis of PGRN were observed using either fluorescence microscopy (FIG. 9A-9F) or FACS (FIGS. 10A and 10B).

In the case of “sortilin pro-domain peptide: peptide of the Sortilin1 pro-domain used as a blocker of PGRN binding (QDRLDAPPPPAAPLPRWSGPIGVSWGLRAAAAGGAFPRGGRWRR)”, the “PGRN binding and endocytosis (DyLight-650 fluorescence)” value (Sortilin [1]) is reported as “not observed; also recorded: little signal”, the “PGRN levels in the media (rescue of sortilin-mediated reduction)” value (Sortilin [2]) is reported as “partially rescued” and the “blocking of PGRN binding to transfected cells” value (Sortilin [3]) is reported as “blocked”.
